Changes are numbered by the printed parent chain. Names and notes keep the numbering of the source. Values joined by “and” are separate entries in the source; they are usually repeats but may differ in a detail not shown here. Equal values may be shown once.

What is called Kd is the free concentration of one partner at which half of the binding sites on the other are occupied at equilibrium, for simple one-to-one binding. In general, koff refers to the rate constant with which the complex falls apart. One may read the kon as a measure of how fast the partners come together.

For experiment [1], the target named is T1, recombinant E. coli-expressed cynomolgus IL-13 (cynomolgus, UniProt Q0PW92 21-132).
T1 construct: also called cyno IL-13
In words: SPR. In general terms: In SPR one partner is held on a chip, and binding of the other changes the refractive index at the surface.

Experiment [2] addresses T2, recombinant E. coli-expressed cynomolgus IL-4 (cynomolgus, UniProt P79339 25-153).
T2 construct: also called cyno IL-4
T2 sequence (looked up): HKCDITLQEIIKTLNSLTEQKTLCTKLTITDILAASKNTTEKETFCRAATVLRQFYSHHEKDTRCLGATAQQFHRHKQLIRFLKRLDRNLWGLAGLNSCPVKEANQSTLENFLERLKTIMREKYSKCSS
In words: SPR.

The target of experiment [3] is T3, recombinant E. coli-expressed human IL-4 (human, UniProt P05112 25-153).
T3 construct: made and purified at GSK; also called Interleukin-4; rhIL-4
T3 sequence: T2 sequence (looked up) with K26E, I29V, L33F
Put plainly: SPR exp 1.

Experiment [4] has as its target T4, recombinant E. coli-expressed human IL-13 (human, UniProt P35225 35-146).
T4 construct: made and purified at GSK; also called Interleukin-13; rhIL-13
In words: SPR exp 1.

Experiment [5] addresses T3, recombinant E. coli-expressed human IL-4. In words: SPR exp 2.
Experiment [6] addresses T4, recombinant E. coli-expressed human …. In words: SPR exp 2.
Experiment [7] has the same target. Put plainly: SPR.
Experiment [8] concerns the target T3, recombinant E. coli-expressed human IL-4. In words: SPR.

B1: PascoH-TVAAPS-474 (bispecific antibody, human IgG1, kappa)
heavy: not shown
light: DIVLTQSPSSLSASVGDRVTITCKASQSVDYDGDSYMNWYQQKPGKAPKLLIYAASNLESGIPSRFSGSGSGTDFTFTISSLQPEDIATYYCQQSNEDPPTFGQGTKVEIKRTVAAPSVFIFPPSDEQLKSGTASVVCLLNNFYPREAKVQWKVDNALQSGNSQESVTEQDSKDSTYSLSSTLTLSKADYEKHKVYACEVTHQGLSSPVTKSFNRGEC
In the case of B1, the dissociation constant Kd in experiment [1] stood at 27.1 nM; in experiment [2], 0.0491 nM; in experiment [3], 0.02 nM; in experiment [4] it was 0.94 nM. For the same molecule, the koff is 0.0117 s⁻¹ in experiment [1], 8.85e-05 s⁻¹ in experiment [2], 9.7e-05 s⁻¹ in experiment [3] and 0.00042 s⁻¹ in experiment [4]. The association rate constant (kon) in experiment [1] was determined as 433000 M⁻¹ s⁻¹; in experiment [2], 1.8e+06 M⁻¹ s⁻¹; in experiment [3], 5.5e+06 M⁻¹ s⁻¹; in experiment [4], 450000 M⁻¹ s⁻¹.

B2: PascoH-EPKSC-474 (bispecific antibody, human IgG1, kappa)
heavy: not shown
light: B1 light
In the case of B2, in experiment [3], the dissociation constant Kd came to 0.02 nM, the dissociation rate constant (koff) was 9.8e-05 s⁻¹ and the kon turned out to be 4.9e+06 M⁻¹ s⁻¹. Besides, in experiment [4], the dissociation constant (Kd) is 1.1 nM, the koff stood at 0.0004 s⁻¹ and the association rate constant (kon) amounted to 350000 M⁻¹ s⁻¹.

B3: PascoH-ELQLE-474 (bispecific antibody, human IgG1, kappa)
heavy: not shown
light: B1 light
Consider B3, for which, in experiment [3], the Kd is 0.02 nM, the koff was 0.00011 s⁻¹ and the association rate constant (kon) was 5.1e+06 M⁻¹ s⁻¹. For the same molecule, in experiment [4], the Kd is 1.8 nM, the koff is 0.00062 s⁻¹ and the kon came out at 340000 M⁻¹ s⁻¹.

B4: PascoH-ASTKG-474 (bispecific antibody, human IgG1, kappa)
heavy: not shown
light: B1 light
With B4, the dissociation constant Kd in experiment [1] was 29.5 nM; in experiment [2], 0.0445 nM; in experiment [3], 0.02 nM; in experiment [4], 1.5 nM. In addition, the koff in experiment [1] came out at 0.0107 s⁻¹; in experiment [2], 7.9e-05 s⁻¹; in experiment [3], 8.6e-05 s⁻¹; in experiment [4] it was 0.00046 s⁻¹. The kon in experiment [1] was 364000 M⁻¹ s⁻¹; in experiment [2], 1.78e+06 M⁻¹ s⁻¹; in experiment [3], 5.3e+06 M⁻¹ s⁻¹; in experiment [4], 310000 M⁻¹ s⁻¹.

B5: PascoL-ASTKG-474 (bispecific antibody, human IgG1, kappa)
heavy: not shown
light: DIVLTQSPSSLSASVGDRVTITCKASQSVDYDGDSYMNWYQQKPGKAPKLLIYAASNLESGIPSRFSGSGSGTDFTFTISSLQPEDIATYYCQQSNEDPPTFGQGTKVEIKRTVAAPSVFIFPPSDEQLKSGTASVVCLLNNFYPREAKVQWKVDNALQSGNSQESVTEQDSKDSTYSLSSTLTLSKADYEKHKVYACEVTHQGLSSPVTKSFNRGECASTKGPTGSGVQLLESGGGLVQPGGSLRLSCAASGFTFAWYDMGWVRQAPGKGLEWVSSIDWHGEVTYYADSVKGRFTISRDNSKNTLYLQMNSLRAEDTAVYYCATAEDEPGYDYWGQGTLVTVSS
Take B5: in experiment [5], the equilibrium dissociation constant (Kd) was 0.041 nM and 0.06 nM; the off-rate constant (koff) was 0.000121 s⁻¹ and 0.000152 s⁻¹; the kon was 2.95e+06 M⁻¹ s⁻¹ and 2.54e+06 M⁻¹ s⁻¹. Also, in experiment [6], the Kd is 0.451 nM and 0.595 nM; the koff is 0.000238 s⁻¹ and 0.00032 s⁻¹; the kon is 526000 M⁻¹ s⁻¹ and 538000 M⁻¹ s⁻¹.

B6: 586H-147 (bispecific antibody, human IgG1, kappa)
heavy: not shown
light: DIVMTQSPLSLPVTPGEPASISCRSSQNIVHINGNTYLEWYLQKPGQSPRLLIYKISDRFSGVPDRFSGSGSGTDFTLKISRVEADDVGIYYCFQGSHVPWTFGQGTKLEIKRTVAAPSVFIFPPSDEQLKSGTASVVCLLNNFYPREAKVQWKVDNALQSGNSQESVTEQDSKDSTYSLSSTLTLSKADYEKHKVYACEVTHQGLSSPVTKSFNRGEC
As to B6, the dissociation constant Kd in experiment [7] is 0.46 nM. In addition, in experiment [8], the Kd was 345 nM, the off-rate (koff) was found to be 0.00118 s⁻¹ and the on-rate constant (kon) was found to be 3420 M⁻¹ s⁻¹.

B7: 586H (antibody, human IgG1, kappa)
heavy: not shown
light: B6 light
notes: no dAb; heavy chain ends in GS
As for B7, the Kd in experiment [7] was determined as 0.44 nM. Further, the binding result in experiment [8] was “no binding (tested: 512 nM top concentration)”.

B8: 586H-EPKSC (antibody, human IgG1, kappa)
heavy: not shown
light: B6 light
In the case of B8, in experiment [7], the Kd was 0.45 nM. Also, the binding result in experiment [8] is on record as “no binding (tested: 512 nM top concentration)”.

B9: 586H-ELQLE (antibody, human IgG1, kappa)
heavy: not shown
light: B6 light
notes: no dAb; linker only
Turning to B9, the Kd in experiment [7] is 0.47 nM. Further, in experiment [8], the binding result is “no binding (tested: 512 nM top concentration)”.

B10: 586H-EPKSC-147 (bispecific antibody, human IgG1, kappa)
heavy: not shown
light: B6 light
As for B10, the Kd in experiment [7] was found to be 0.46 nM. For the same molecule, in experiment [8], the dissociation constant (Kd) worked out at 26.4 nM, the off-rate constant (koff) was found to be 0.000671 s⁻¹ and the kon turned out to be 25400 M⁻¹ s⁻¹.

B11: 586H-ASTKG-147 (bispecific antibody, human IgG1, kappa)
heavy: not shown
light: B6 light
Consider B11, for which the Kd in experiment [7] was 0.44 nM. For the same molecule, in experiment [8], the Kd is 18.8 nM, the koff amounted to 0.00069 s⁻¹ and the on-rate (kon) was determined as 36700 M⁻¹ s⁻¹.

B12: 586H-G4S-147 (bispecific antibody, human IgG1, kappa)
heavy: not shown
light: B6 light
Take B12: the Kd in experiment [7] came out at 0.45 nM. Moreover, in experiment [8], the dissociation constant (Kd) was found to be 108 nM, the koff came out at 0.000457 s⁻¹ and the association rate constant (kon) was 4210 M⁻¹ s⁻¹.

B13: 586H-ASTKG (antibody, human IgG1, kappa)
heavy: not shown
light: B6 light
notes: no dAb; linker only
For the molecule B13, the Kd in experiment [7] came to 0.32 nM. In addition, the binding result in experiment [8] is reported as “no binding (tested: 512 nM top concentration)”.

B14: 586H-ASTKG-25 (bispecific antibody, human IgG1, kappa)
heavy: not shown
light: B6 light
As for B14, the Kd in experiment [7] worked out at 0.54 nM; in experiment [8], 21.8 nM. For the same molecule, in experiment [8], the koff amounted to 0.0012 s⁻¹.

B15: 586H-154 (bispecific antibody, human IgG1, kappa)
heavy: not shown
light: B6 light
Take B15: the Kd in experiment [7] is 0.46 nM. In experiment [8], the Kd was 285 nM, the koff was found to be 0.00174 s⁻¹ and the kon was determined as 6100 M⁻¹ s⁻¹.

B16: 586H-EPKSC-25 (bispecific antibody, human IgG1, kappa)
heavy: not shown
light: B6 light
For the molecule B16, in experiment [7], the dissociation constant Kd amounted to 0.55 nM. Also, in experiment [8], the Kd amounted to 29.6 nM, the koff is 0.00142 s⁻¹ and the kon is 47900 M⁻¹ s⁻¹.

B17: 586H-ASTKG-154 (bispecific antibody, human IgG1, kappa)
heavy: not shown
light: B6 light
Consider B17, for which the Kd in experiment [7] stood at 0.44 nM. In experiment [8], the Kd was 8.7 nM, the koff was found to be 0.000284 s⁻¹ and the on-rate (kon) came out at 32600 M⁻¹ s⁻¹.

B18: 586H-25 (bispecific antibody, human IgG1, kappa)
heavy: not shown
light: B6 light
As for B18, the equilibrium dissociation constant (Kd) in experiment [7] turned out to be 0.39 nM. For the same molecule, in experiment [8], the Kd came out at 67 nM, the off-rate (koff) was determined as 0.000411 s⁻¹ and the on-rate (kon) turned out to be 6130 M⁻¹ s⁻¹.

B19: 586H-G4S-154 (bispecific antibody, human IgG1, kappa)
heavy: not shown
light: B6 light
On to B19, for which the Kd in experiment [7] was 0.37 nM. Moreover, in experiment [8], the Kd stood at 138 nM, the koff is 0.000685 s⁻¹ and the on-rate constant (kon) turned out to be 5000 M⁻¹ s⁻¹.

B20: 586H-G4S-25 (bispecific antibody, human IgG1, kappa)
heavy: not shown
light: B6 light
For B20, the Kd in experiment [7] is 0.41 nM. In addition, in experiment [8], the dissociation constant Kd was 151 nM, the koff came out at 0.000954 s⁻¹ and the on-rate constant (kon) came to 6300 M⁻¹ s⁻¹.

B21: 586H-EPKSC-154 (bispecific antibody, human IgG1, kappa)
heavy: not shown
light: B6 light
As for B21, the Kd in experiment [7] amounted to 0.42 nM. Besides, in experiment [8], the dissociation constant (Kd) was 18.8 nM, the koff stood at 0.00057 s⁻¹ and the association rate constant (kon) is 30300 M⁻¹ s⁻¹.

B22: PascoL-474 (bispecific antibody, human IgG1, kappa)
heavy: not shown
light: DIVLTQSPSSLSASVGDRVTITCKASQSVDYDGDSYMNWYQQKPGKAPKLLIYAASNLESGIPSRFSGSGSGTDFTFTISSLQPEDIATYYCQQSNEDPPTFGQGTKVEIKRTVAAPSVFIFPPSDEQLKSGTASVVCLLNNFYPREAKVQWKVDNALQSGNSQESVTEQDSKDSTYSLSSTLTLSKADYEKHKVYACEVTHQGLSSPVTKSFNRGECGSGVQLLESGGGLVQPGGSLRLSCAASGFTFAWYDMGWVRQAPGKGLEWVSSIDWHGEVTYYADSVKGRFTISRDNSKNTLYLQMNSLRAEDTAVYYCATAEDEPGYDYWGQGTLVTVSS
B22: in experiment [5], the Kd is 0.065 nM and 0.048 nM; the koff was 0.000184 s⁻¹ and 0.000122 s⁻¹; the kon was 2.8e+06 M⁻¹ s⁻¹ and 2.53e+06 M⁻¹ s⁻¹. In addition, in experiment [6], the Kd was 1.34 nM and 1.24 nM; the koff was 0.000382 s⁻¹ and 0.000386 s⁻¹; the kon is 286000 M⁻¹ s⁻¹ and 312000 M⁻¹ s⁻¹.

For the origin of these results see patent US20110008345A1 (GlaxoSmithKline, published 2011).
